According to patent publication US8258256 (Johns Hopkins, dated 2012):
Ends that are not written are not given here. * marks the point of attachment. Biotin = O=C1N[C@H]2[C@H](CS[C@H]2CCCCC(=O)*)N1

B1: selected phage with insert SEQ ID NO 14 (peptide)
peptide: KSLSRHDHIHHH
modifications: not fully specified
notes: Selected in three rounds on His-PSMA; not tested singly; not shown: M13 phage coat protein III
B2: selected phage with insert SEQ ID NO 33 (peptide)
peptide: AWPENPSRRPFT
modifications: not fully specified; also: displayed on M13 phage pIII
notes: as for B1
B3: selected phage with insert SEQ ID NO 32 (peptide)
peptide: HHEWTHHWPPPP
modifications: not fully specified; also: displayed on M13 phage pIII
notes: as for B1
B4: selected phage with insert SEQ ID NO 8 (peptide)
peptide: SLDSMSPQWHAD
modifications: not fully specified; also: displayed on M13 phage pIII
notes: as for B1
B5: selected phage with insert SEQ ID NO 17 (peptide)
peptide: QRSPMMSRIRLP
modifications: not fully specified
notes: as for B1
B6: selected phage with insert SEQ ID NO 35 (peptide)
peptide: MIHTNHWWAQDR
modifications: not fully specified; also: displayed on M13 phage pIII
notes: as for B1
B7: non-selected control peptide QMARIPKRLARHK-biotin (peptide)
peptide: QMARIPKRLARHK(Biotin)
notes: also called control consisting of a positively charged 12 amino acid peptide
B8: selected phage with insert SEQ ID NO 31 (peptide)
peptide: KHMHWHPPALNT
modifications: not fully specified
notes: as for B1
B9: selected phage with insert SEQ ID NO 9 (peptide)
peptide: SEFIHHWTPPPS
modifications: not fully specified; also: displayed on M13 phage pIII
notes: as for B1
B10: monomeric WQPDTAHHWATL (SEQ ID NO:1) peptide (as used in the NAALADase assay) (peptide)
peptide: WQPDTAHHWATL
B11: WQPDTAHHWATLK (Biotin) monomeric peptide (peptide)
peptide: WQPDTAHHWATLK(Biotin)-OH
modifications: N-terminus assumed
SMILES: CC(C)C[C@H](NC(=O)[C@@H](NC(=O)[C@H](C)NC(=O)[C@H](Cc1c[nH]c2ccccc12)NC(=O)[C@H](Cc1c[nH]cn1)NC(=O)[C@H](Cc1c[nH]cn1)NC(=O)[C@H](C)NC(=O)[C@@H](NC(=O)[C@H](CC(=O)O)NC(=O)[C@@H]1CCCN1C(=O)[C@H](CCC(N)=O)NC(=O)[C@@H](N)Cc1c[nH]c2ccccc12)[C@@H](C)O)[C@@H](C)O)C(=O)N[C@@H](CCCCNC(=O)CCCC[C@@H]1SC[C@@H]2NC(=O)N[C@@H]21)C(=O)O
notes: Synthetic, Fmoc chemistry; also called biotinylated monomeric peptide
B12: selected phage with insert SEQ ID NO 29 (peptide)
peptide: GHLIPLRQPSHQ
modifications: not fully specified
notes: as for B1
B13: selected phage with insert SEQ ID NO 4 (peptide)
peptide: YTSPHHSTTGHL
modifications: not fully specified; also: displayed on M13 phage pIII
notes: as for B1
B14: selected phage with insert SEQ ID NO 36 (peptide)
peptide: TPLPSFTDGHHT
modifications: not fully specified; also: displayed on M13 phage pIII
notes: as for B1
B15: dimeric WQPDTAHHWATL (SEQ ID NO:1) peptide (as used in the NAALADase assay) (peptide)
peptide: WQPDTAHHWATL
chain: Lys
modifications: not fully specified (C-terminus); printed as (WQPDTAHHWATL)2-K; also: two copies of chain 1, C-termini joined to alpha and epsilon amines of branching Lys, C-terminal label on Lys not given here
B16: selected phage with insert SEQ ID NO 13 (peptide)
peptide: AGFQHHPSFYRF
modifications: not fully specified
notes: as for B1
B17: selected phage with insert SEQ ID NO 6 (peptide)
peptide: NSFPLMLMHHHP
modifications: not fully specified; also: displayed on M13 phage pIII
notes: as for B1
B18: selected phage with insert HNAYWHWPPSMT (SEQ ID NO 2) (peptide)
peptide: HNAYWHWPPSMT
modifications: not fully specified
notes: as for B1
B19: selected phage with insert SEQ ID NO 10 (peptide)
peptide: NGFSHHAPLMRY
modifications: not fully specified
notes: as for B1
B20: selected phage with insert SEQ ID NO 30 (peptide)
peptide: WTHHHSYPRPLQ
modifications: not fully specified
notes: as for B1
B21: WQPDTAHHWATL (SEQ ID NO:1) phage (peptide)
peptide: WQPDTAHHWATL
modifications: not fully specified
notes: Whole M13 phage particle displaying the 12-mer; tested as phage, in pfu/ml; not shown: M13 phage coat protein III
B22: selected phage with insert SEQ ID NO 34 (peptide)
peptide: YRHWPIDYPPPP
modifications: not fully specified; also: displayed on M13 phage pIII
notes: as for B1

Assays:
[1] = molecular target: T1, His-PSMA (recombinant extracellular domain of prostate specific membrane antigen with amino-terminal His-6 … (UniProt Q04609 44-750, limits assumed)); assay: phage display selection in solution on His-PSMA, three rounds, capture with anti-His magnetic beads
T1 construct: extracellular domain; Expressed in Drosophila S2 cells from pMT-His-PSMA (pMT/BiP/V5-HisA backbone) and purified on Ni-NTA; also called His-tagged PSMA; recombinant PSMA
Protocol: Phage Library Screening—Peptides from the random M13 12-mer phage library were selected using His-tagged PSMA as the target, which was then captured using magnetically labeled Anti-His Tag Antibody. To remove non-specific phage binding to Anti-His antibody and other components of the magnetic separation system, the library was depleted 2 times with the His-MACS system. First Round of Screening: The final eluate from negative screening was incubated with 0.8 μgs of PSMA for 30 mins at room temperature. 50 uls of His-MACS were added and allowed to bind for 30 mins at room temperature. The incubation mixture was loaded onto a MACS column and washed twice with 1 ml of PBS/0.1% Tween 20 (PBST). Beads containing PSMA bound to phage were collected and amplified using PhD Kit protocol (NEB, Auburn, Mass.). Second Round Screening: Negative screening was repeated as above except with more BSA (0.5%) and longer incubation (1 hr at 4° C.). 10^10 pfu from the first round of screen were then incubated with PSMA in 1% BSA for 6 hrs at 4° C. His-MACS in 3% BSA were incubated for 30 mins and bound phages were collected and amplified as in round one. For third round screening the same method was used except Mouse IgG solution (100 μgs/ml) was added to the blocking solution. Individual phage were selected and sequenced after third round of screening.
To decrease the selection of non-specific low affinity binders, phage screening was performed in solution and incorporated negative screening steps using other selection components (i.e. antibodies, magnetic beads, etc.) to remove many background binders (22). Thus, for this study the phage library was incubated with magnetically labeled Anti-His_6 (SEQ ID NO: 25) antibody […]. After negative selection steps, His-PSMA was incubated with the phage library and phages bound to His-PSMA were captured using magnetically labeled Anti-His_6 (SEQ ID NO: 25) antibody, FIG. 1.

[2] = molecular target: T1, His-PSMA (recombinant extracellular …); assay: ELISA, biotinylated peptide on immobilized PSMA or BSA
From the text: (§1) Recombinant PSMA (0.625 µgs) and BSA (25 µgs/ml) were immobilized and indicated concentrations of the biotinylated […] […] Results are the mean binding in 4 replicate wells each ±S.D.

[3] = molecular target: T1, His-PSMA (recombinant extracellular …); assay: cell-based or functional assay
[4] = molecular target: T1, His-PSMA (recombinant extracellular …); assay: ELISA, biotinylated peptide on immobilized PSMA against immobilized BSA
From the text: as §1

[5] = molecular target: T1, His-PSMA (recombinant extracellular …); assay: phage ELISA on immobilized His-PSMA against immobilized BSA, phage at 10^10 pfu/ml, anti-M13-HRP

T1 sequence (Q04609 other isoform, or with tags, fused parts or gaps limits assumed): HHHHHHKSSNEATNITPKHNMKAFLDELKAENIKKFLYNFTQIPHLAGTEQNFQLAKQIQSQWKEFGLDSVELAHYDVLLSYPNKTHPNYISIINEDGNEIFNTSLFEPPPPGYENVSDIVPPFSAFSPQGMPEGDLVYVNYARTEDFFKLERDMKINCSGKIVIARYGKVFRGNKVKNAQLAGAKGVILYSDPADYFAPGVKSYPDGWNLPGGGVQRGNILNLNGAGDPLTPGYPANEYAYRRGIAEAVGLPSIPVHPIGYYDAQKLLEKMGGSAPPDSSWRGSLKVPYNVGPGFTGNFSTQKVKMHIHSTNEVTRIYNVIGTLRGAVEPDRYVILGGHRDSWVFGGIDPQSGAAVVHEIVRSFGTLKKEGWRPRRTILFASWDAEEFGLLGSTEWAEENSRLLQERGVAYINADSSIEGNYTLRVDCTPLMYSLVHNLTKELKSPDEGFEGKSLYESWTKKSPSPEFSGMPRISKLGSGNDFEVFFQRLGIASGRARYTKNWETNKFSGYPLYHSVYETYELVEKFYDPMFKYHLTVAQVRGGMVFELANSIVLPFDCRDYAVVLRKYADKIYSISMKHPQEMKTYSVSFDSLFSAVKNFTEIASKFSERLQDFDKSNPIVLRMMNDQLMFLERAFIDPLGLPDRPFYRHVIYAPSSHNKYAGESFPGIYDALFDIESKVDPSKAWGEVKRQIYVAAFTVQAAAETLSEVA

| Binder | binding result [1] | further results |
| --- | --- | --- |
| B1 | binds |  |
| B2 | binds |  |
| B3 | binds |  |
| B4 | binds |  |
| B5 | binds |  |
| B6 | binds |  |
| B7 |  | binding result [2]: no binding |
| B8 | binds |  |
| B9 | binds |  |
| B10 |  | inhibition of NAAG hydrolysis (NAALADase activity of PSMA), IC50 [3]: 23 µM |
| B11 |  | binding result [4]: binds |
| B12 | binds |  |
| B13 | binds |  |
| B14 | binds |  |
| B15 |  | fold better inhibition of PSMA than the monomer [3]: ~10 fold; inhibition of NAAG hydrolysis (NAALADase activity of PSMA), IC50 [3]: 2.2 µM |
| B16 | binds |  |
| B17 | binds |  |
| B18 | binds |  |
| B19 | binds |  |
| B20 | binds |  |
| B21 |  | fold higher binding to PSMA compared to BSA [5]: ~10 fold |
| B22 | binds |  |
